From PMC3828344 come the findings set out here.

The test system of the series is vesicular stomatitis virus particle (Vesicular stomatitis virus). Description: electrochemical aptasensor (SWV).

As to “GCTAGCGAATTCCGTACGAAGGGCGAATTCCACATTGGGCTGCAGCCCGGGGGATCC [thiolated AG3 (aptasensor)]”, the binding signal (% of current decrease) worked out at 9.1.
